Results taken from patent US20220041706A1 (published 2022).

Target: cynomolgus monkey FGF19 (cynomolgus monkey)
Experiment: SPR

cynomolgus monkey FGF19 (cynomolgus monkey), sequence (chain, as listed by the source): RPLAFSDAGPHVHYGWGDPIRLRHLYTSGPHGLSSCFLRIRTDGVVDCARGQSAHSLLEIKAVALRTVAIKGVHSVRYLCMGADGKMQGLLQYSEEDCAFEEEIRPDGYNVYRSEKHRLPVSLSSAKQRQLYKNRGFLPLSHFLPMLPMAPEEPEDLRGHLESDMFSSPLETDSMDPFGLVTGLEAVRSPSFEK

B1: G1A8 (anti-FGF19 human IgG1 antibody, affinity-improved from 31A3) (antibody, V domains shown)
VH: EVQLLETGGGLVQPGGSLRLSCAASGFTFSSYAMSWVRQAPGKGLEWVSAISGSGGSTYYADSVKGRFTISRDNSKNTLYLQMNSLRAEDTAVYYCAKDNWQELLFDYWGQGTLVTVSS
VL: QAGLTQPASVSGSPGQSITISCTGTSSDVGGYNYVSWYQQHPGKAPKLMIYDVSNRPSGVSDRFSGSKSGNTASLTISGLQTEDEADYYCSSWTRSSGLVFGGGTQLTVLG
- Kd: 1.63 nM
